Holding throughout (type): cell-based, murine
One experiment relates to PTGS2 (COX2). The experiment in a line: PTGS2 mRNA / COX2 protein expression in WT-1 brown preadipocytes. The following applies: for PTGS2 mRNA expression relative to the control: 200 ng/mL with insulin and T3, three days. As for the experimental part: (§1) Total RNA was isolated with QIAzol lysis reagent (Qiagen, Valencia, Calif.) and purified by RNeasy Mini columns (Qiagen) following the manufacture's instructions. cDNA was prepared from total RNA using the Advantage RT-PCR kit (BD Biosciences, Palo Alto, Calif.) according to manufacturer's instructions. Diluted cDNA was used in a PCR reaction with SYBR Green Master Mix (Applied Biosystems, Foster City, Calif.) and primers specifically designed for detection of the gene of interest. PCR reactions were run in duplicate for each sample and quantitated in the ABI Sequence Detection System (Applied Biosystems). Data were expressed as arbitrary units after normalization to levels of expression of internal controls for each sample. Sequences of primers for specific genes are each obtained from the published literature or designed using publically available gene sequence databases. Unless otherwise indicated, gene expression data described in the examples below was obtained using QPCR.
Cells were harvested in lysis buffer (50 mM HEPES, 137 mM NaCl, 1 mM MgCl2, 1 mM CaCl2, 10 mM Na2P2O7, 10 mM NaF, 2 mM EDTA, 10% glycerol, 1% Igepal CA-630, 2 mM vanadate, 10 μg/ml of leupeptin, 10 μg/ml of aprotinin, 2 mM phenylmethylsulfonyl fluoride; pH 7.4). After lysis, lysates were clarified by centrifugation at 12,000×g for 20 min at 4° C., the amount of protein in the supernatants was determined by the Bradford Protein Assay (Bio-Rad Laboratories, Hercules, Calif.). Proteins were directly solubilized in Laemmli sample buffer. Equal amounts of lysates were separated by sodium dodecyl sulfate-polyacrylamide gel electrophoresis and transferred to Immobolin-P membranes. Membranes were blocked overnight at 4° C. and incubated with the indicated antibody for 2 hours at room temperature. Specifically bound primary antibodies were detected with peroxidase-coupled secondary antibody and enhanced chemiluminescence (ECL, Amersham Biosciences, Piscataway, N.J.).
To determine if FGF4, FGF5, FGF6, FGF10, FGF16, FGF17, FGF18 or FGF20 induced either UCP1 mRNA or PTGS2 mRNA expression, murine brown preadipocyte WT-1 cells (Tseng et al., Nat. Cell. Biol. (2005) 7(6):601-611) were grown in growth media (DMEM-high glucose+10% FBS) supplemented with FGF4, FGF5, FGF6, FGF10, FGF16, FGF17, FGF18, FGF20 or buffer (control) in combination with insulin (20 nM) and triidothyronine (T3, 1 nM) for three days. All FGFs were used at a dosage of 200 ng/mL. mRNA was isolated and UCP1 and PTGS2 gene expression levels were evaluated by quantitative reverse transcription polymerase chain reaction (Q-RT-PCR) analysis. All experiments were performed triplicate and the data are presented as mean+/−SEM.
To determine if FGF1 or FGF10 induce UCP1 mRNA expression or PTGS2 mRNA expression, murine brown preadipocyte WT-1 cells (Tseng et al., Nat. Cell. Biol. (2005) 7(6):601-611) were grown in growth media (DMEM-high glucose+10% FBS) supplemented with FGF1, FGF10 or vehicle (control) in combination with insulin (20 nM) and triidothyronine (T3, 1 nM) for three days. FGF1 and FGF10 were used at a dosage of 50 ng/mL, 100 ng/mL or 300 ng/mL. mRNA was isolated and UCP1 and PTGS2 expression levels were evaluated by quantitative reverse transcription polymerase chain reaction (Q-RT-PCR) analysis. All experiments were performed triplicate and the data are presented as mean+/−SEM.
To test the role of specific prostaglandins (PGs) in activating UCP1 expression, WT-1 brown adipocytes were pretreated with PGE2, PGI2 and FGF6 for 24 hours. mRNA expression levels of UCP1, PTGS2, LDHA, PDK1 and PKM2 were then measured.

The test system of a further experiment is UCP1. The experiment in a line: UCP1 mRNA expression (Q-RT-PCR) in WT-1 brown preadipocytes. The following applies: for expression of UCP1: 200 ng/mL with insulin and T3, three days. The protocol: as §1
The effect of FGF6 on differentiation of WT-1 murine brown preadipocytes was also examined. WT-1 cells can be induced to undergo brown adipocyte differentiation, characterized by lipid accumulation and expression of adipogenic and brown fat markers, as described above (Klein et al. (1999) J Biol Chem 274:34795; Tseng et al. (2005) Nat Cell Biol 7:601). WT-1 cells were treated with FGF6 in growth media (DMEM+10% FBS), a vehicle control (“control” or “C” referred to in FIGS. 3A-D), or induction media (“induction” or “I” referred to in FIGS. 3A-D) as described above for seven days. Following the treatment, cells were examined for the color of the culture media in combination with oil Red O staining, expression of adipogenic markers, expression of brown fat markers, immunofluorescent staining of cells with UCP1 and DPAI, and Western blot analysis to determine the presence of UCP1 and β-tubulin. The results are described in FIGS. 3A to 3D.
UCP1 mRNA expression in brown adipocyte cells was determined at FGF6 concentrations ranging from 0 to 300 ng/ml in the absence of induction cocktail.
In order to determine the length of time necessary to induce UCP1 expression upon exposure to of cells to FGF6, an experiment was performed whereby FGF6 was administered to brown preadipocytes at a concentration of 200 ng/ml and UCP1 expression was determined. FGF21 and a control were also used in the time course experiment. FGF21, a member of the endocrine FGF ligands that has been implicated in the browning of white fat (Fisher F. M. et al., Genes Dev. 26:271-281, 2012). […] FGF6 could acutely induce a significant increase of UCP1 expression as early as 4 hours after a 200 ng/ml dose, as described in FIG. 4B. At 24 hours, the fold-induction of UCP1 mRNA by FGF6 reached 700-fold higher than the untreated cells, as described in FIG. 4B.
To assess FGF6's role in the regulation of mitochondrial activity, FGF6 was stably expressed in WT-1 brown preadipocytes and 3T3-F442A white preadipocytes. Stable cells were generated by viral infection followed by drug selection.
FGF2, FGF6 and FGF9 were used at a dosage of 50 ng/mL, 100 ng/mL, 200 ng/mL or 300 ng/mL. FGF21 was used at the dosage of 50 ng/ml and 500 ng/mL. The concentration of BMP7 was 3.3 nM. RNA was isolated and UCP1 and PPARγ expression levels were evaluated by quantitative reverse transcription polymerase chain reaction (Q-RT-PCR) analysis after 24 hours (i.e., 1 day) (FIG. 14A), 2 days (FIG. 14B), 5 days (FIG. 14C) and 7 days (FIG. 14D) of treatment. All experiments were performed triplicate and the data are presented as mean+/−SEM.
FGF2, FGF6 and FGF9 were used at a dosage of 200 ng/mL. FGF21 was used at a dosage of 500 ng/mL. The concentration of BMP7 was 3.3 nM. mRNA was isolated and UCP1 and PPARγ expression levels were evaluated by quantitative reverse transcription polymerase chain reaction (Q-RT-PCR) analysis after 24 hours (i.e., 1 day), 2 days, 5 days and 7 days of treatment (FIG. 15). […]

A further experiment relates to UCP1 and PTGS2. The experiment in a line: UCP1 and PTGS2 mRNA in WT-1 cells undergoing adipocyte differentiation. The following applies: after induction media; 200 ng/mL FGF or 3.3 nM BMP7, 2 days. As for the experimental part: In a separate experiment investigating the ability of FGF proteins to induce UCP1 expression in cells undergoing adipocyte differentiation, WT-1 preadipocyte cells were differentiated by culturing in growth media supplemented with insulin (20 nM) and triiodothyronine (T3, 1 nM) for 3 days, followed by incubation in an induction media (growth medium supplemented 20 nM insulin, 1 nM T3, 0.5 mM isobutyl-methylxanthine, 5 μM dexamethasone) for 2 days. The cell were then exposed to BMP7 (3.3 nM) or 200 ng/mL of FGF2, FGF6 or, FGF9 in growth media supplemented with insulin (20 nM) and triodothyronine (T3, 1 nM) for 2 additional days. Cells were harvested and UCP1 and PTGS2 mRNA expression levels were determined according to the quantitative RT-PCR assay described above. Experiments were performed in triplicate and the data presented as mean+/−SEM.

Where [1] appears, read: 50 ng/mL and 200 ng/mL with insulin and T3, three days.
[2] abbreviates: FGF21 50 and 500 ng/mL, BMP7 3.3 nM, with insulin and T3.
Where [3] appears, read: 50, 100 or 300 ng/mL with insulin and T3, three days, FGF1 effect at 300 ng/ml.

The text below walks through data of patent US20170173114A1, “METHODS AND COMPOSITIONS FOR INDUCTION OF UCP1 EXPRESSION” (Joslin Diabetes Center, Inc., priority 2014, published 2017).

B1: FGF18: fibroblast growth factor 18 (protein, listed as Homo sapiens)
chain: MYSAPSACTCLCLHFLLLCFQVQVLVAEENVDFRIHVENQTRARDDVSRKQLRLYQLYSRTSGKHIQVLGRRISARGEDGDKYAQLLVETDTFGSQVRIKGKETEFYLCMNRKGKLVGKPDGTSKECVFIEKVLENNYTALMSAKYSGWYVGFTKKGRPRKGPKTRENQQDVHFMKRYPKGQPELQKPFKYTTVTKRSRRIRPTHPA
As to B1, in the experiment on PTGS2 (COX2), the “PTGS2 mRNA expression relative to the control” value is on record as “increased”.

B2: FGF22: fibroblast growth factor 22 (protein, listed as Homo sapiens)
chain: MRRRLWLGLAWLLLARAPDAAGTPSASRGPRSYPHLEGDVRWRRLFSSTHFFLRVDPGGRVQGTRWRHGQDSILEIRSVHVGVVVIKAVSSGFYVAMNRRGRLYGSRLYTVDCRFRERIEENGHNTYASQRWRRRGQPMFLALDRRGGPRPGGRTRRYHLSAHFLPVLVS
Consider B2, for which the “UCP1 mRNA expression” value in the experiment with UCP1 (setting [1]) is “not detectably induced”.

B3: BMP7: bone morphogenetic protein 7, rhBMP7 provided by Stryker Regenerative Medicine (protein, UniProt P18075 293-431, looked up)
Bone morphogenetic protein 7: STGSKQRSQNRSKTPKNQEALRMANVAENSSSDQRQACKKHELYVSFRDLGWQDWIIAPEGYAAYYCEGECAFPLNSYMNATNHAIVQTLVHFINPETVPKPCCAPTQLNAISVLYFDDSSNVILKKYRNMVVRACGCH
Consider B3, for which, in the experiment on UCP1 (setting [2]), the “UCP1 expression level at day 7” value is reported as “only minimal amounts”; the “UCP1 expression level at days 1, 2 and 5” value is listed as “did not express detectable amounts of UCP1”. In the experiment on UCP1 and PTGS2, the “PTGS2 mRNA expression in cells undergoing adipocyte differentiation” value is reported as “minimal levels” and the “UCP1 mRNA expression in cells undergoing adipocyte differentiation” value is given as “minimal levels”.

B4: FGF5: fibroblast growth factor 5, recombinant human, R&D Systems (protein, listed as Homo sapiens)
chain: MSLSFLLLLFFSHLILSAWAHGEKRLAPKGQPGPAATDRNPRGSSSRQSSSSAMSSSSASSSPAASLGSQGSGLEQSSFQWSPSGRRTGSLYCRVGIGFHLQIYPDGKVNGSHEANMLSVLEIFAVSQGIVGIRGVFSNKFLAMSKKGKLHASAKFTDDCKFRERFQENSYNTYASAIHRTEKTGREWYVALNKRGKAKRGCSPRVKPQHISTHFLPRFKQSEQPELSFTVTVPEKKKPPSPIKPKIPLSAPRKNTNSVKYRLKFRFG
With B4, the “expression of UCP1” value in the experiment on UCP1 was “not induced”.

B5: FGF4: fibroblast growth factor 4, recombinant human, R&D Systems (protein, listed as Homo sapiens)
chain: MSGPGTAAVALLPAVLLALLAPWAGRGGAAAPTAPNGTLEAELERRWESLVALSLARLPVAAQPKEAAVQSGAGDYLLGIKRLRRLYCNVGIGFHLQALPDGRIGGAHADTRDSLLELSPVERGVVSIFGVASRFFVAMSSKGKLYGSPFFTDECTFKEILLPNNYNAYESYKYPGMFIALSKNGKTKKGNRVSPTMKVTHFLPRL
B5: in the experiment on UCP1 (setting [1]), the “UCP1 mRNA expression” value is “high levels of UCP1 mRNA expression”. Further, the “PTGS2 mRNA expression relative to the control” value in the experiment on PTGS2 (COX2) was “increased”.

B6: FGF17: fibroblast growth factor 17 (protein, listed as Homo sapiens)
chain: MGAARLLPNLTLCLQLLILCCQTQGENHPSPNFNQYVRDQGAMTDQLSRRQIREYQLYSRTSGKHVQVTGRRISATAEDGNKFAKLIVETDTFGSRVRIKGAESEKYICMNKRGKLIGKPSGKSKDCVFTEIVLENNYTAFQNARHEGWFMAFTRQGRPRQASRSRQNQREAHFIKRLYQGQLPFPNHAEKQKQFEFVGSAPTRRTKRTRRPQPLT
For the molecule B6, the “PTGS2 mRNA expression relative to the control” value in the experiment on PTGS2 (COX2) is given as “increased”.

B7: FGF10: fibroblast growth factor 10, keratinocyte growth factor 2 (protein, listed as Homo sapiens)
chain: MWKWILTHCASAFPHLPGCCCCCFLLLFLVSSVPVTCQALGQDMVSPEATNSSSSSFSSPSSAGRHVRSYNHLQGDVRWRKLFSFTKYFLKIEKNGKVSGTKKENCPYSILEITSVEIGVVAVKAINSNYYLAMNKKGKLYGSKEFNNDCKLKERIEENGYNTYASFNWQHNGRQMYVALNGKGAPRRGQKTRRKNTSAHFLPMVVHS
For the molecule B7, the “expression of UCP1” value in the experiment on UCP1 is listed as “not induced”. Also, the “UCP1 mRNA expression” value in the experiment on UCP1 (setting [3]) is “did not induce expression”. Besides, the “PTGS2 mRNA expression” value in the experiment with PTGS2 (COX2) (setting [3]) was “did not induce expression”.
